From article PMC7497161 come the findings set out here.

The target of this assay is circularly permuted Caspase-2 double mutant Asp323Thr/His226Ala (human) (UniProt P42575).

*1 amine or outer side, *2 acyl side, *3 side chain or, on linkers, in order; H or OH if unused. Where no end group is shown, it is not given here. [ ]: non-standard residue; d: D form. Dap(Dnp) = diaminopropionic acid carrying a 2,4-dinitrophenyl quencher, O=C([C@H](CNc1ccc([N+](=O)[O-])cc1[N+](=O)[O-])N[*:1])[*:2]; 2Abz = Nc1ccccc1C(=O)O

Sequence of UniProt P42575 (P42575 whole entry H226A/D323T): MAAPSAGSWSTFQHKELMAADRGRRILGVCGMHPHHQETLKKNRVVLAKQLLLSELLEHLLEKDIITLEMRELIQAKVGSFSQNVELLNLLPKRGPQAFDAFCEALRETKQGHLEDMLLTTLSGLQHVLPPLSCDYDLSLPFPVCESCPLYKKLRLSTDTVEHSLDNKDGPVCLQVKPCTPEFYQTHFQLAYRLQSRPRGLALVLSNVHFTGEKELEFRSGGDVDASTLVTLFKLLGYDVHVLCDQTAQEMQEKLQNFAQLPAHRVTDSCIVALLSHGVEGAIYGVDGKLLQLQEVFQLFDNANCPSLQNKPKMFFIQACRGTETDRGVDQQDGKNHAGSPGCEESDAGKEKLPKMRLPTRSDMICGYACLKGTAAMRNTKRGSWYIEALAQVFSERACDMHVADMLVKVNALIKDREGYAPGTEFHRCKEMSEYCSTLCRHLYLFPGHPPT

As for [2Abz]VDVADGA-{Dap(Dnp)} [Abz-VDVAD-GA-Dap(Dnp)], the K M (Michaelis-Menten kinetics, FRET peptide-based cleavage assay, 1 μM enzyme) is 55 µM.

As to [2Abz]VDVADAA-{Dap(Dnp)} [Abz-VDVAD-AA-Dap(Dnp)], the K M (Michaelis-Menten kinetics, FRET peptide-based cleavage assay, 1 μM enzyme) amounted to 57 µM. As for [2Abz]VDVADTA-{Dap(Dnp)} [Abz-VDVAD-TA-Dap(Dnp)], the K M (Michaelis-Menten kinetics, FRET peptide-based cleavage assay, 1 μM enzyme) was 82 µM. For [2Abz]VDVADVA-{Dap(Dnp)} [Abz-VDVAD-VA-Dap(Dnp)], the K M (Michaelis-Menten kinetics, FRET peptide-based cleavage assay, 1 μM enzyme) is 77 µM. Turning to [2Abz]VDVADLA-{Dap(Dnp)} [Abz-VDVAD-LA-Dap(Dnp)], the K M (Michaelis-Menten kinetics, FRET peptide-based cleavage assay, 1 μM enzyme) is 193 µM.

Consider [2Abz]VDVADPA-{Dap(Dnp)} [Abz-VDVAD-PA-Dap(Dnp)], for which the K M (Michaelis-Menten kinetics, FRET peptide-based cleavage assay, 1 μM enzyme) amounted to 43 µM.
